Data published in the nanobody polyreactivity screen of Harvey et al. (2022).

Assay: yeast display, Sf9 membrane polyspecificity reagent, FACS + sequencing; frameworks hold sequencing errors
Outline: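 Galactose-induced (36–48 hours) yeast carrying a synthetic nanobody display library were exposed to 10% biotinylated, detergent-solubilized Sf9 membrane reagent at 4 °C for 1 hour. FACS followed streptavidin microbead enrichment, using low and high (top ~1%) gates for expression (anti-HA) and reagent binding (streptavidin). Colony PCR, MiSeq 2 × 250 sequencing and CDR-length filtering followed. Labels for polyreactivity reflect the gate of origin.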

With “QVQLVESGGGLVQAGGSLRLSCAASGSTFFPNAMGWDRQAPGKERELVAAITRSDDDTYYADSVKGRFTISRVHAKNTVYLQMNCLKPEDTAVYYCAADGTSTDSPSWPGYEYWGQGTQVTVSS” as the sequence, how does the “polyreactivity (PSR sort gate)” value read?
The value was “low polyreactivity”.

For “QVQLVESGGGLVQAGGSLRLSCAASGSTFFPNGMGWYRQAPGKERELVAAITQDGGSTYYADSVKGRFTISRDNAKNTVYLQMNSLKPEDTAVYYCNADYFVWYIGRVFSRYGYWGQGTQVTVSS”, which “polyreactivity (PSR sort gate)” value is on record?
Its value is “low polyreactivity”.

Which “polyreactivity (PSR sort gate)” value does the source give for “QVQLVESGGGLVQAGGSLRLSCAASGSTFFPYAMGWYRQAPGKERELVAAIRWSGGRTYYADSVKGRFTISRDNAKNTVYLQMNRLKPEDTAVYYCNAGRYKYTDDYWGQGTQVTVSS” here?
Its value is “high polyreactivity”.

For “QVQLVESGGGLVQAGGSLRLSCAASGSTFFPYAMGWYRQAPGKERELVAAIRWSGGRTYYADSVKGRFTISRDNAKNTVYLQMNSLNPEDTAVYYCAAAKYLDYDYWGQGTQVTVSS”, which “polyreactivity (PSR sort gate)” value is on record?
The value was “high polyreactivity”.

Which “polyreactivity (PSR sort gate)” value does the source give for “QVQLVESGGGLVQAGGSLRLSCAASGSTFFPYAMGWYRQAPGKERELVAGISSDGGTYYADSVKGRFTISRDNAKNTVYLQMNSLKPEDTAVYYCAALQADRDRYPEFDLMDYWGQGTQVTVSS” here?
The value was “low polyreactivity”.

Which “polyreactivity (PSR sort gate)” value does the source give for “QVQLVESGGGLVQAGGSLRLSCAASGSTFFRNAMGWYRQAPGKERELVAGITSGVTTYYADSVKGRFTISRDNAKNTVYLQMNSLKPEDTAVYYCAARRTGYRLRKSDYWGQGTQVTVSS” here?
The value was “high polyreactivity”.

For “QVQLVESGGGLVQAGGSLRLSCAASGSTFFRYTMGWYRQAPGKERELVAAISWSGGSTYYADSVKGRFTISRDNAKNTVYLQMNSLKPEDTAVYYCAAVYEWDAVKWVDVDMDYWGQGTQVTVSS”, which “polyreactivity (PSR sort gate)” value is on record?
The value was “low polyreactivity”.

Which “polyreactivity (PSR sort gate)” value does the source give for “QVQLVESGGGLVQAGGSLRLSCAASGSTFFRYTMGWYRQAPGKERELVAAITSGGGTDYADSVKGRFTISRDNGKNTVYLQMNSLKPDDTAVYYCAVILSWRDYYLYWRGSWRDDYWGQGTQVSVSS” here?
The value was “low polyreactivity”.

For “QVQLVESGGGLVQAGGSLRLSCAASGSTFFTNAMGWYRQAPGKERELVATITWSGGSTYADSVKGRFTISRDNAKNTVYLQMNSLKPEDTAVFYCAAESSSYWGDQGGALWLYDYWGQGTQVTVSS”, which “polyreactivity (PSR sort gate)” value is on record?
The value was “low polyreactivity”.

Which “polyreactivity (PSR sort gate)” value does the source give for “QVQLVESGGGLVQAGGSLRLSCAASGSTFFTNVMGWYRQAPGKERELVADISSGGDTNYADSVKGRFTISRDNAKNTVYLQMNSLKPEDTAVYYCAVDPNVDYELHGFFFSFDYWGQGTQVTVSS” here?
Its value is “low polyreactivity”.

With “QVQLVESGGGLVQAGGSLRLSCAASGSTFFTYAMGWYRQAPGKERELVAAISWSGGTTYYSDSVKWRFTISRDYAKNTDYLQMNSLKPEDTAGYYCASDRDGILKANDYWGQGTQVTVSS” as the sequence, how does the “polyreactivity (PSR sort gate)” value read?
The value was “low polyreactivity”.

With “QVQLVESGGGLVQAGGSLRLSCAASGSTFFYNVMGWYRQAPGKERELVAAITSSGGGTYYADSVKGRFTISRDNAKNTVYLQMNSLKPEDTAVYYCAKPVWLRDYRHGGRFGYWGQGTQVTVSS” as the sequence, how does the “polyreactivity (PSR sort gate)” value read?
The value was “low polyreactivity”.

For “QVQLVESGGGLVQAGGSLRLSCAASGSTFFYYAMGWYRQAPGKERAFVAAISSSVGTTYYADSVKGRFTISRDNAKNTVYLQMNRLKPVDTAVYYCAKASSATRYVQLRQDYDYWGQGTQVTVSS”, which “polyreactivity (PSR sort gate)” value is on record?
Its value is “low polyreactivity”.

Which “polyreactivity (PSR sort gate)” value does the source give for “QVQLVESGGGLVQAGGSLRLSCAASGSTFFYYTMGWYIQAPGKERELVADITRGGGTTYYADSVKGRFTISRDNAKNTVYLQMNSLKPEDTAVYYCNAPYPNARYWTGWGYYYWGQGTQVTVSS” here?
Its value is “high polyreactivity”.

For “QVQLVESGGGLVQAGGSLRLSCAASGSTFGANAMGWYRQAPGKERELVATISSGGRTYYADSVKGRFTISRDNAKNTVYLQMNSLKPEDTAVYYCNAGADYTYVYISVYVLYDYWGQGTQVTVSS”, which “polyreactivity (PSR sort gate)” value is on record?
The value was “low polyreactivity”.

For “QVQLVESGGGLVQAGGSLRLSCAASGSTFGANAMGWYRQAPGKERELVAVITWNDGSTYYADSVKGRFTISRDNAKNTVYLQMNSLKPEDTAVYYCAAEYADSWSAFDWNYYYWVQGTQVTVSS”, which “polyreactivity (PSR sort gate)” value is on record?
The value was “high polyreactivity”.

For “QVQLVESGGGLVQAGGSLRLSCAASGSTFGAYAMGWSRKAPGKERELVAAISRRGGSTYYADSVKGRFTISRDNAKNTVYLQMNSLKPEDTAVYYCNAVGTRVDGEHYYWGQGTQVTVSS”, which “polyreactivity (PSR sort gate)” value is on record?
Its value is “high polyreactivity”.
